{
  "source": "patent US20260184782A1",
  "about": "(TWIST BIOSCIENCE, published 2026)",
  "data": [
    {"target": "T1, recombinant human TIGIT (human, UniProt Q495A1 22-141, limits assumed)", "T1 construct": "recombinant human TIGIT used in Carterra SPR; also called hTIGIT", "T1 sequence (looked up)": "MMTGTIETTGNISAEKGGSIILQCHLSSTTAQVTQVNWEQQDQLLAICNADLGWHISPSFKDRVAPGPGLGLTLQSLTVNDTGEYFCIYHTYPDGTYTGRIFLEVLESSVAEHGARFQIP", "assay": "SPR Carterra, average", "method": "Binding affinities of VHH-Fc proteins to recombinant human TIGIT were measured by SPR using a Carterra instrument (Table 10A). […] Average values reported from measurements from 1-2 samples.", "units": {"Kd": "nM", "koff": "s⁻¹", "kon": "M⁻¹ s⁻¹"}, "values": [
      {"binder": "TIGIT-SC132 (Fc fusion, VHH-Fc fusion in assay) VHH: EVQLVESGGGLVQPGGSLRLSCAASGFTLENNMMGWFRQAPGKEREFVAAISASGTLRAYADSVKGRFTISADNSKNTAYLQMNSLKPEDTAVYYCATWRPNRGRYYDWYFDLWGQGTLVTVSS", "Kd": 45.6, "koff": 0.00347, "kon": 197000},
      {"binder": "TIGIT-SC144 (Fc fusion, VHH-Fc fusion in assay) VHH: EVQLVESGGGLVQPGGSLRLSCAASGFTLENNMMGWFRQAPGKEREFVAAISPSGTLRAYADSVKGRFTISADNSKNTAYLQMNSLKPEDTAVYYCAGIHDSGVPLGNWGQGTLVTVSS", "Kd": 41, "koff": 0.00574, "kon": 140000},
      {"binder": "TIGIT-SC72 (Fc fusion, VHH-Fc fusion in assay) VHH: EVQLVESGGGLVQPGGSLRLSCAASGGLTFSSYAMGWFRQAPGKEREFVAAISWSGGRTYYADSVKGRFTISADNSKNTAYLQMNSLKPEDTAVYYCARWSAKRHSDTMTYYMDVWGQGTLVTVSS", "Kd": 48.1, "koff": 0.00168, "kon": 34900},
      {"binder": "TIGIT-SC133 (Fc fusion, VHH-Fc fusion in assay) VHH: EVQLVESGGGLVQPGGSLRLSCAASGFTLENNMMGWFRQAPGKEREFVAAISASGTLRAYADSVKGRFTISADNSKNTAYLQMNSLKPEDTAVYYCACGRVSGAFIYFDYWGQGTLVTVSS", "Kd": 41.9, "koff": 0.00561, "kon": 158000},
      {"binder": "TIGIT-SC128 (Fc fusion, VHH-Fc fusion in assay) VHH: EVQLVESGGGLVQPGGSLRLSCAASGFIGNYHAMGWFRQAPGKEREFVARITSGGSTYYADSVKGRFTISADNSKNTAYLQMNSLKPEDTAVYYCGGFGNWGQGTLVTVSS", "Kd": 45.4, "koff": 0.00708, "kon": 158000},
      {"binder": "TIGIT-SC29 (Fc fusion, VHH-Fc fusion in assay) VHH: EVQLVESGGGLVQPGGSLRLSCAASGFTLENNMMGWFRQAPGKERELVAAIDWSGGSTIYADSVKGRFTISADNSKNTAYLQMNSLKPEDTAVYYCARGHDYGDYIAYWGQGTLVTVSS", "Kd": 59.2, "koff": 0.00287, "kon": 48700},
      {"binder": "TIGIT-SC30 (Fc fusion, VHH-Fc fusion in assay) VHH: EVQLVESGGGLVQPGGSLRLSCAASGRSFSSDWIGWFRQAPGKERELVAAIDWSGGSALYADSVKGRFTISADNSKNTAYLQMNSLKPEDTAVYYCARVNWNNVGWFDPWGQGTLVTVSS", "Kd": 67.3, "koff": 0.0155, "kon": 231000},
      {"binder": "TIGIT-SC16 (Fc fusion, VHH-Fc fusion in assay) VHH: EVQLVESGGGLVQPGGSLRLSCAASGTTFSSAAMGWFRQAPGKEREWVASVLRGGYTWYADSVKGRFTISADNSKNTAYLQMNSLKPEDTAVYYCARDPVELGDYWGQGTLVTVSS", "Kd": 52.6, "koff": 0.00387, "kon": 80100},
      {"binder": "TIGIT-SC66 (Fc fusion, VHH-Fc fusion in assay) VHH: EVQLVESGGGLVQPGGSLRLSCAASGTTFSSAAMGWFRQAPGKEREWVASVLRGGYTWYADSVKGRFTISADNSKNTAYLQMNSLKPEDTAVYYCVTDPRQWLGHDYWGQGTLVTVSS", "Kd": 39.1, "koff": 0.00116, "kon": 29700},
      {"binder": "TIGIT-SC44 (Fc fusion, VHH-Fc fusion in assay) VHH: EVQLVESGGGLVQPGGSLRLSCAASGSIFGLGAMGWFRQAPGKERELVAITWGGSTTLYADSVKGRFTISADNSKNTAYLQMNSLKPEDTAVYYCATDQGQWLFDFWGQGTLVTVSS", "Kd": 35.1, "koff": 0.0124, "kon": 354000},
      {"binder": "TIGIT-SC145 (Fc fusion, VHH-Fc fusion in assay) VHH: EVQLVESGGGLVQPGGSLRLSCAASGNTFSGGFTLGYYVMGWFRQAPGKEREFVAAISRSGTLKAYADGVKGRFTISADNSKNTAYLQMNSLKPEDTAVYYCARVEAYGDPLGYWGQGTLVTVSS", "Kd": 47.9, "koff": 0.0108, "kon": 226000},
      {"binder": "TIGIT-SC164 (Fc fusion, VHH-Fc fusion in assay) VHH: EVQLVESGGGLVQPGGSLRLSCAASGFTFDRSWMGWFRQAPGKEREFVASVLRGGYTWYADSVKGRFTISADNSKNTAYLQMNSLKPEDTAVYYCTTEGSGWRNWGQGTLVTVSS", "Kd": 55.7, "koff": 0.00258, "kon": 52800},
      {"binder": "TIGIT-SC140 (Fc fusion, VHH-Fc fusion in assay) VHH: EVQLVESGGGLVQPGGSLRLSCAASGNTFSGGFTFDRSWMGWFRQAPGKEREWVASVLRGGYTWYADSVKGRFTISADNSKNTAYLQMNSLKPEDTAVYYCAGDRYYDFWSGPNSGDYWGQGTLVTVSS", "Kd": 68.7, "koff": 0.00474, "kon": 68900},
      {"binder": "TIGIT-SC129 (Fc fusion, VHH-Fc fusion in assay) VHH: EVQLVESGGGLVQPGGSLRLSCAASGPTLGSYVMGWFRQAPGKEREFVAAISGSGDDTYYADSVKGRFTISADNSKNTAYLQMNSLKPEDTAVYYCARWREFPGYYFAIDVWGQGTLVTVSS", "Kd": 43.9, "koff": 0.00191, "kon": 43700},
      {"binder": "TIGIT-SC130 (Fc fusion, VHH-Fc fusion in assay) VHH: EVQLVESGGGLVQPGGSLRLSCAASGPTLGSYVTGWFRQAPGKEREFVAAISGSSDDTYYADSVKGRFTISADNSKNTAYLQMNSLKPEDTAVYYCARWREFPGYYFAIDVWGQGTLVTVSS", "Kd": 73, "koff": 0.00526, "kon": 72000},
      {"binder": "TIGIT-SC5 (Fc fusion, VHH-Fc fusion in assay) VHH: EVQLVESGGGLVQPGGSLRLSCAASGFAFGDSWMGWFRQAPGKEREWVASVLRGGYTWYADSVKGRFTISADNSKNTAYLQMNSLKPEDTAVYYCARESEGWFDPWGQGTLVTVSS", "Kd": 51.4, "koff": 0.00216, "kon": 42000},
      {"binder": "TIGIT-SC183 (Fc fusion, VHH-Fc fusion in assay) VHH: EVQLVESGGGLVQPGGSLRLSCAASGFAFGDSWMGWFRQAPGKEREWVASVLRGGYTWYADSVKGRFTISADNSKNTAYLQMNSLKPEDTAVYYCAKDRSYSFDYWGQGTLVTVSS", "Kd": 55.2, "koff": 0.00495, "kon": 90400},
      {"binder": "TIGIT-SC53 (Fc fusion, VHH-Fc fusion in assay) VHH: EVQLVESGGGLVQPGGSLRLSCAASGFTFSPSWMGWFRQAPGKEREWVASVLRGGYTWYADSVKGRFTISADNSKNTAYLQMNSLKPEDTAVYYCARESTIVGAIDSWGQGTLVTVSS", "Kd": 55.4, "koff": 0.0027, "kon": 48800},
      {"binder": "TIGIT-SC204 (Fc fusion, VHH-Fc fusion in assay) VHH: EVQLVESGGGLVQPGGSLRLSCAASGFLFNSYWMVWFRQAPGKEREFVAAIWRSGTLKAYADSVKGRFTISADNSKNTAYLQMNSLKPEDTAVYYCAADVNYGSTWRNWGQGTLVTVSS", "Kd": 66.7, "koff": 0.00339, "kon": 50800},
      {"binder": "TIGIT-SC182 (Fc fusion, VHH-Fc fusion in assay) VHH: EVQLVESGGGLVQPGGSLRLSCAASGFTFSSSSMGWFRQAPGKEREFVAAINWSGGSTSYADSVKGRFTISADNSKNTAYLQMNSPKPEDTAVYYCAKDRSYSFDYWGQGTLVTVSS", "Kd": 60.6, "koff": 0.00722, "kon": 119000},
      {"binder": "TIGIT-SC149 (Fc fusion, VHH-Fc fusion in assay) VHH: EVQLVESGGGLVQPGGSLRLSCAASGFTLENNMMGWFRQAPGKEREFVAAISRSGTLKAYADSVKGRFTISADNSKNTAYLQMNSLKPEDTAVYYCAKVQGPYCSGGSCYLYTFDLWGQGTLVTVSS", "Kd": 35, "koff": 0.0043, "kon": 123000},
      {"binder": "TIGIT-SC65 (Fc fusion, VHH-Fc fusion in assay) VHH: EVQLVESGGGLVQPGGSLRLSCAASGFTFGNYDMGWFRQAPGKEREFVAAITGSGRSTYYADSVKGRFTISADNSKNTAYLQMNSLKPEDTAVYYCARGRIAASGTKVYWYFDLWGQGTLVTVSS", "Kd": 44.9, "koff": 0.0249, "kon": "1.09e+06"},
      {"binder": "TIGIT-SC162 (Fc fusion, VHH-Fc fusion in assay) VHH: EVQLVESGGGLVQPGGSLRLSCAASGNTFSGGFMGWFRQAPGKEREWVASVLRGGYTWYADSVKGRFTISADNSKNTAYLQMNSLKPEDTAVYYCTTDRAIGVRPLFDHWGQGTLVTVSS", "Kd": 126, "koff": 0.0203, "kon": 622000},
      {"binder": "TIGIT-SC142 (Fc fusion, VHH-Fc fusion in assay) VHH: EVQLVESGGGLVQPGGSLRLSCAASGFSFDRWAMGWFRQAPGKEREFVAAIGWSGNLKAYADSVKGRFTISADNSKNTAYLQMNSLKPEDTAVYYCASGDGYSMDYFDPWGQGTLVTVSS", "Kd": 66.5, "koff": 0.0213, "kon": 320000},
      {"binder": "TIGIT-SC131 (Fc fusion, VHH-Fc fusion in assay) VHH: EVQLVESGGGLVQPGGSLRLSCAASGDTSEIYDMGWFRQAPGKEREFVAITWNSGRIGSNGFATYADSVKGRFTISADNSKNTAYLQMNSLKPEDTAVYYCARWAVGQAFDLWGQGTLVTVSS", "Kd": 41, "koff": 0.0278, "kon": 677000},
      {"binder": "TIGIT-SC15 (Fc fusion, VHH-Fc fusion in assay) VHH: EVQLVESGGGLVQPGGSLRLSCAASGSILSFNHIGWFRQAPGKEREGVAWIARYDGSTLYADSVKGRFTISADNSKNTAYLQMNSLKPEDTAVYYCARARGGYVDYWGQGTLVTVSS", "Kd": 62, "koff": 0.00814, "kon": 143000},
      {"binder": "TIGIT-SC85 (Fc fusion, VHH-Fc fusion in assay) VHH: EVQLVESGGGLVQPGGSLRLSCAASGRTFSPYTMGWFRQAPGKEREWVAGISQSGGSTAYADSVKGRFTISADNSKNTAYLQMNSLKPEDTAVYYCARDLNAMGDAYDIWGQGTLVTVSS", "Kd": 44.6, "koff": 0.000599, "kon": 8760},
      {"binder": "TIGIT-SC139 (Fc fusion, VHH-Fc fusion in assay) VHH: EVQLVESGGGLVQPGGSLRLSCAASGFTLENNMMGWFRQAPGKEREFVAAISRSGTLKAYADSVKGRFTISADNSKNTAYLRMNSLKPEDTAVYYCAGLTSGGAFSYYWGQGTLVTVSS", "Kd": 55.2, "koff": 0.00778, "kon": 141000}
    ]}
  ]
}
